The values that follow come from patent US20200270365A1 (JIANGSU HENGRUI MEDICINE, published 2020).

The target in experiment [1] is T1, PCSK9 D374Y mutant protein inserted with biotin receiving peptide BP15 and His-tag: PCSK9-D374Y-BP15-His6 (human, UniProt Q8NBP7 153-692; A8T644 31-152, biotin on the BP15 biotin receiving peptide).
T1 construct: also called PCSK9-Y; mutant PCSK9
Briefly: competition ELISA, LDLR-FC coated, biotin PCSK9-Y + antibody. As for the experimental part:
The blocking ability of PCSK9 antibodies according to the present invention for the binding of LDLR-FC and PCSK9-Y (mutant PCSK9, SEQ ID NO: 6) was tested by measuring the amount of PCSK9-Y binding to LDLR in the presence of the antibodies.
(§1) LDLR-FC (produced in-house, with sequence of SEQ ID NO: 8) was diluted to 2 μg/ml with phosphate buffer and was added into the 96-well ELISA plate, at 4° C. overnight. The plate was washed and then blocked with Tris buffer (including 0.9 mM CaCl₂, 0.05% Tween 20 and 5% skim milk) at 37° C. for 2 hours. Then the plate was washed and 100 μl/well of mixture of biotin-labeled mutant PCSK9 (diluted to 1 μg/ml with Tris buffer containing 0.9 mM CaCl₂, 0.05% Tween 20 and 1% skim milk) and antibody samples (diluted with Tris buffer containing 0.9 mM CaCl₂, 0.05% Tween 20 and 1% skim milk) was added and incubated at 37° C. for 1 hour. Then the plate was washed again and horseradish peroxidase-streptavidin (sigma, CAT #S2438) was added and incubated at 37° C. for 1 hour. Then the plate was washed and tetramethyl brenzidine solution was added for development. Finally, the stop buffer was added and OD450 value was measured on the Microplate reader, then IC50 value was calculated.

Experiment [2] has as its target T1, PCSK9 D374Y mutant protein inserted …. Briefly: ELISA, biotin PCSK9-Y on streptavidin plate. How it is done: The binding ability of anti-PCSK9 antibodies of the present invention to PCSK9-Y protein (mutant PCSK9, SEQ ID NO: 6) was detected by measuring the amounts of antibodies binding to PCSK9-Y immobilized on the ELISA plate.
Streptavidin (sigma, CAT #S4762) was diluted to 2 μg/ml with PBS and was added into a 96-well ELISA plate, at 4° C. for overnight. The plate was washed and then was blocked with Tris buffer (including 0.9 mM CaCl₂, 0.05% Tween 20 and 5% skim milk) at 37° C. for 2 hours. The plate was washed and 100 μl/well of biotin-labeled PCSK9-Y (produced in-house, diluted with Tris buffer containing 0.9 mM CaCl₂, 0.05% Tween 20 and 1% skim milk) was added and incubated at 37° C. for 1 hour. After the wash step, various concentrations of diluted PCSK9 antibody samples were added to the plate and incubated at 37° C. for 1 hour. […] Then the plate was washed and tetramethyl brenzidine solution was added for development. Finally, the stop buffer was added and the OD450 value was measured on the Microplate reader, and then EC50 was calculated.
For orientation: An ELISA detects its analyte on a solid surface through an enzyme-linked reagent.

Experiment [3] deals with T2, PCSK9 protein inserted with biotin receiving peptide BP15 and His-tag: PCSK9-BP15-His6 (human, UniProt Q8NBP7 153-692; A8T644 31-152, biotin on the BP15 biotin receiving peptide (labeled during the expression)).
T2 construct: also called WT PCSK9; PCSK9 WT
Briefly: ELISA, biotin PCSK9 on streptavidin plate. As for the experimental part:
The binding ability of anti-PCSK9 antibodies of the present invention to PCSK9 protein (WT PCSK9, SEQ ID NO: 5) was detected by measuring the amounts of antibodies binding to PCSK9 immobilized on the ELISA plate.
Streptavidin (sigma, CAT #S4762) was diluted to 2 μg/ml with PBS and was added into a 96-well ELISA plate, at 4° C. for overnight. The plate was washed and then was blocked with Tris buffer (including 0.9 mM CaCl₂, 0.05% Tween 20 and 5% skim milk) at 37° C. for 2 hours. Then the plate was washed again and 100 μl/well of biotin-labeled PCSK9 (produced in-house, diluted with Tris buffer containing 0.9 mM CaCl₂, 0.05% Tween 20 and 1% skim milk) was added and incubated at 37° C. for 1 hour. After the wash step various concentrations of diluted PCSK9 antibody samples was added to the plate and incubated at 37° C. for 1 hour. […] Then the plate was washed and tetramethyl brenzidine solution was added for development. Finally, the stop buffer was added and the OD450 value was measured on the Microplate reader, and then EC50 was calculated.

Experiment [4] has as its target T2, PCSK9 protein inserted with biotin …. Briefly: competition ELISA, LDLR-FC coated, biotin PCSK9 + antibody. How it is done: The blocking ability of PCSK9 antibodies according to the present invention for the binding of LDLR-FC (produced in-house, with sequence of SEQ ID NO: 8) and PCSK9 (SEQ ID NO: 5) was tested by measuring the amount of PCSK9 binding to LDLR in the presence of the antibodies.
as §1, with “LDLR-FC” for “LDLR-FC (produced in-house, with sequence of SEQ ID NO: 8)”, “to 5” for “to 2”, “plate, kept” for “plate,”, “biotin-labeled” for “biotin-labeled mutant”, “to 2” for “to 1”

Where a chain is given by its changes, count along the chain named.

B1: h011-3050 (antibody, V domains shown)
VH: QVQLVQSGAEVKKPGASVKVSCKASGYTFTGYTIHWVRQAPGQGLEWMGEILPSSTYTKFNQKFKDRVTMTRDTSISTAYMELSRLRSDDTAVYYCARERIYSNYWFFDVWGQGTTVTVSS
VL: DIVMTQSPSSLSASVGDRVTITCKASQNVYTAVAWYQQKPGKSPKLLIYSASNRYTGVPSRFSGSGSGTDFTLTISSLQPEDFATYFCQQYSSYPYTFGGGTKVEIK
What is called IC50 is the midpoint of a concentration-inhibition curve. In general, EC50 refers to the concentration giving half of the maximal effect. A low value points to a more potent agent. Consider B1, for which the values for the IC50 in experiment [1] and in experiment [4] were 0.123 µg/mL and 0.598 µg/mL, respectively. Also, the EC50 in experiment [2] was determined as 0.00525 µg/mL; in experiment [3], 0.00312 µg/mL.

B2: h011-3174 (antibody, V domains shown)
VH: B1 VH with E50Y, L52N, Y102F
VL: B1 VL with S50Q
For the molecule B2, the IC50 worked out at 0.23 µg/mL in experiment [1] and 1.67 µg/mL in experiment [4]. The values for the EC50 in experiment [2] and in experiment [3] were 0.0112 µg/mL and 0.00529 µg/mL, respectively.

B3: h011-3111 (antibody, V domains shown)
VH: B1 VH with E50Y, L52N
VL: B1 VL with T31W, A32E, A34D
In the case of B3, the values for the IC50 in experiment [1] and in experiment [4] were 0.226 µg/mL and 1.22 µg/mL, respectively. Moreover, the EC50 is 0.00681 µg/mL in experiment [2] and 0.00498 µg/mL in experiment [3].

B4: h011-3073 (antibody, V domains shown)
VH: B1 VH with E50Y, L52N, R100N, Y102F, V110R
VL: B1 VL
With B4, the results for the IC50 in experiment [1] and in experiment [4] were 0.129 µg/mL and 0.604 µg/mL, respectively. For the same molecule, the figures for the EC50 in experiment [2] and in experiment [3] were 0.0123 µg/mL and 0.00389 µg/mL, respectively.

B5: h011-3181 (antibody, V domains shown)
VH: B1 VH with E50Y, L52N
VL: B1 VL with Y91L, Y96D
As to B5, the half-maximal inhibitory concentration (IC50) was determined as 0.233 µg/mL in experiment [1] and 0.857 µg/mL in experiment [4]. Moreover, the values for the EC50 in experiment [2] and in experiment [3] were 0.00678 µg/mL and 0.00221 µg/mL, respectively.

B6: h011-3187 (antibody, V domains shown)
VH: B1 VH with E50Y, L52N
VL: B1 VL with Y91L, Y94S, Y96E
Take B6: the IC50 came out at 0.156 µg/mL in experiment [1] and 0.666 µg/mL in experiment [4]. For the same molecule, the results for the EC50 in experiment [2] and in experiment [3] were 0.00704 µg/mL and 0.0045 µg/mL, respectively.

B7: h011-3121 (antibody, V domains shown)
VH: B1 VH with E50Y, L52N
VL: B1 VL with Y91L, Y94Q, Y96E
For B7, the half-maximal inhibitory concentration (IC50) was determined as 0.174 µg/mL in experiment [1] and 0.662 µg/mL in experiment [4]. The results for the concentration for a half-maximal effect (EC50) in experiment [2] and in experiment [3] were 0.00695 µg/mL and 0.00378 µg/mL, respectively.

B8: h011-3070 (antibody, V domains shown)
VH: B1 VH with E50Y, L52N, R100N, S103F, V110R
VL: B1 VL
As for B8, the 50% inhibitory concentration (IC50) in experiment [1] worked out at 0.228 µg/mL; in experiment [4], 0.629 µg/mL. The EC50 in experiment [2] was found to be 0.0144 µg/mL; in experiment [3], 0.00511 µg/mL.

B9: h011-3133 (antibody, V domains shown)
VH: B1 VH with T33E, E50Y, L52N, S55A
VL: B1 VL
In the case of B9, the IC50 is 0.175 µg/mL in experiment [1] and 0.495 µg/mL in experiment [4]. Besides, the concentration for a half-maximal effect (EC50) in experiment [2] came out at 0.00492 µg/mL; in experiment [3] it was 0.00435 µg/mL.

B10: h011-3147 (antibody, V domains shown)
VH: B1 VH with L52I
VL: B1 VL
As to B10, the values for the IC50 in experiment [1] and in experiment [4] were 0.173 µg/mL and 0.567 µg/mL, respectively. Also, the values for the EC50 in experiment [2] and in experiment [3] were 0.00668 µg/mL and 0.00483 µg/mL, respectively.

B11: h011-3190 (antibody, V domains shown)
VH: B1 VH with L52N
VL: B1 VL
Turning to B11, the half-inhibitory concentration (IC50) was 0.222 µg/mL in experiment [1] and 0.837 µg/mL in experiment [4]. Further, the EC50 in experiment [2] stood at 0.00478 µg/mL; in experiment [3], 0.005 µg/mL.

B12: h011-3065 (antibody, V domains shown)
VH: B1 VH with T33D, E50Y, L52N
VL: B1 VL
For the molecule B12, the values for the half-maximal inhibitory concentration (IC50) in experiment [1] and in experiment [4] were 0.312 µg/mL and 0.73 µg/mL, respectively. Also, the results for the EC50 in experiment [2] and in experiment [3] were 0.0109 µg/mL and 0.00539 µg/mL, respectively.

B13: h011-3118 (antibody, V domains shown)
VH: B1 VH with E50Y, L52N
VL: B1 VL with T31W, A32E, A34V
As for B13, the IC50 in experiment [1] was determined as 0.23 µg/mL; in experiment [4], 1.04 µg/mL. In addition, the 50% effective concentration (EC50) in experiment [2] turned out to be 0.00851 µg/mL; in experiment [3] it was 0.00351 µg/mL.

B14: h011-3058 (antibody, V domains shown)
VH: B1 VH with L52N, S55G
VL: B1 VL
B14: the values for the IC50 in experiment [1] and in experiment [4] were 0.162 µg/mL and 0.542 µg/mL, respectively. Also, the results for the half-maximal effective concentration (EC50) in experiment [2] and in experiment [3] were 0.00606 µg/mL and 0.00369 µg/mL, respectively.

B15: h011-3120 (antibody, V domains shown)
VH: B1 VH with E50Y, L52N
VL: B1 VL with Y91F, S93W, Y94F
Turning to B15, the IC50 in experiment [1] stood at 0.213 µg/mL; in experiment [4], 0.911 µg/mL. The EC50 in experiment [2] is 0.00711 µg/mL; in experiment [3], 0.00538 µg/mL.

B16: h011-3093 (antibody, V domains shown)
VH: B1 VH with E50Y, L52N
VL: B1 VL with S50E, A51M, S52V
B16: the figures for the IC50 in experiment [1] and in experiment [4] were 0.287 µg/mL and 0.706 µg/mL, respectively. In addition, the concentration for a half-maximal effect (EC50) was determined as 0.00989 µg/mL in experiment [2] and 0.00381 µg/mL in experiment [3].

B17: h011-3095 (antibody, V domains shown)
VH: B1 VH with E50Y, L52N
VL: B1 VL with S50E
As to B17, the figures for the IC50 in experiment [1] and in experiment [4] were 0.391 µg/mL and 0.582 µg/mL, respectively. The EC50 in experiment [2] is 0.0132 µg/mL; in experiment [3] it was 0.00441 µg/mL.
